The supplement of paper PMC9732359
± gives the uncertainty stated by the source.

Assay: protein stability index of a GFP-peptide fusion (yeast GPS) (PSI 1-4); higher = more stable; sorted into four equal gates, so the index is relative within each strain
Method in brief: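 Mid-log yeast cultures in leucine-free medium, carrying a pooled plasmid library, were sorted into four equal gates by their GFP/Cherry fluorescence ratio. Each plasmid expressed Cherry along with GFP fused upstream of a tiled 17-residue yeast protein peptide. Plasmids recovered from each gate were PCR-amplified and Illumina-sequenced, with reads assigned to strains by barcodes. The protein stability index was obtained by summing each gate's read frequency weighted by its gate number.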

Sequence	protein stability index (doa10∆)	protein stability index (pdr5∆)	protein stability index (san1∆)	protein stability index (ubr1∆)
LGLAKSVHHARVLITQR [RPS9A]	2.34 ± 0.12	2.86 ± 0.15	2.61 ± 0.17	
RQTGPAKINEVYNNSKD [NSL1]	3.06 ± 0.087	3.06 ± 0.083	2.93 ± 0.073	2.9 ± 0.062
VTLASILTTAVGLVSPS [RPN1]	1.98 ± 0.13	1.55 ± 0.081	2.25 ± 0.19	2.85 ± 0.087
RQPANTKIGAKRIHSVR [RPS8A]	3.08 ± 0.076	3.26 ± 0.075	2.74 ± 0.07	3.04 ± 0.076
EDHDVHSNESSNETIGE [IRR1]	3 ± 0.079	3.2 ± 0.086	3.28 ± 0.058	3.06 ± 0.075
KKYSSKNKYGEINSEDY [SRP68]	3.22 ± 0.12	2.8 ± 0.18	3.34 ± 0.066	3.14 ± 0.053
VFQAKMMDMLKQTGRDQ [RPN11]	2.56 ± 0.061	2.58 ± 0.07	2.52 ± 0.077	2.96 ± 0.062
SNSTPNANQQFLPFNNS [SWI1]	3.25 ± 0.072	3.19 ± 0.058	2.96 ± 0.059	2.94 ± 0.052
YESQTFSSKNEWRKSAI [PRP8]	3.23 ± 0.076	3.28 ± 0.063	3.29 ± 0.06	3.01 ± 0.059
EQKLQTVLETLLSDVNQ [SMC3]				1.22 ± 0.13
TQKTELEIDNKDSVTEC [SIR4]	1.74 ± 0.061	3.15 ± 0.12	2.78 ± 0.14	2.5 ± 0.085
PKNSKTPQSKGFVRNSF [RPO31]	3.17 ± 0.15	3.03 ± 0.14	2.92 ± 0.12	3.18 ± 0.068
SKWFNLEKIHSIEVQSL [SWI3]	2.67 ± 0.24	2.45 ± 0.13	1.59 ± 0.14	2.72 ± 0.12
PNPNNMKTVQSPMGAQP [GAL11]	3.21 ± 0.13	2.96 ± 0.095	2.96 ± 0.12	2.94 ± 0.075
KWSKKSMKDRAQHAVIL [RPS25A]	2.37 ± 0.058	2.42 ± 0.095	2.73 ± 0.091	2.63 ± 0.054
SVDIGVETILSGKARIC [FAS2]	2.7 ± 0.12	2.75 ± 0.11	1.8 ± 0.12	2.78 ± 0.069
YSPNTLGHPDNYIPGNP [COB]	2.52 ± 0.11	2.27 ± 0.088	2.9 ± 0.064	2.43 ± 0.047
KVTSTLLEQDTSTEKLY [PRE9]	2.7 ± 0.056	3 ± 0.066	2.65 ± 0.063	2.63 ± 0.08
LCAGANNPKIQTKDSVK [IRR1]	3.29 ± 0.1	2.99 ± 0.1	3.13 ± 0.11	3.15 ± 0.057
PKDPSNVETYEQILQWV [BRR2]	2.77 ± 0.079	2.48 ± 0.098	2.91 ± 0.11	2.88 ± 0.12
EENNYQYGYSGSSAGMN [SNF6]	2.22 ± 0.053	2.16 ± 0.077	1.94 ± 0.12	2.5 ± 0.065
ATVDEFPLCVHLVSNEL [RPL10]	3.01 ± 0.073	2.93 ± 0.067	3.05 ± 0.069	2.99 ± 0.053
FDEKTIEEMLEIISGYA [RPC17]	1.36 ± 0.082	2.69 ± 0.14	2.07 ± 0.14	1.75 ± 0.09

Sequence	protein stability index (doa10∆)	protein stability index (pdr5∆)	protein stability index (san1∆)	protein stability index (ubr1∆)
MPRLEEIDDFNDIDDLD [SEC65]	2.71 ± 0.1	3.09 ± 0.1	2.9 ± 0.088	3.23 ± 0.12
AVVFKPFKGEVVDGTVV [RPB7]	3.05 ± 0.1	3.03 ± 0.048	2.79 ± 0.062	2.79 ± 0.068
QRHIAVGKQIVNIPSFM [RPS9A]	2.48 ± 0.056	2.74 ± 0.067	2.89 ± 0.082	2.8 ± 0.065
EEGRAIPGEYITYALSG [RPS21B]	2.99 ± 0.073	3.1 ± 0.11	2.88 ± 0.078	2.96 ± 0.044
LRLLEVTDDDRLWLKKV [POP8]	1.36 ± 0.061	1.68 ± 0.072	1.35 ± 0.095	1.61 ± 0.071
ATQKESLEMVPKDTSAA [RGR1]	3.25 ± 0.087	3.25 ± 0.07	3.09 ± 0.055	3.17 ± 0.05
SVLSSKPGSKPEKTSTE [SIR3]	3.17 ± 0.12	2.7 ± 0.19	3.15 ± 0.078	3.2 ± 0.12
SHLFNEYSYVDSNMDSI [RPN4]	3.26 ± 0.1	3.56 ± 0.087	2.93 ± 0.1	3.06 ± 0.069
EVGPWGSARTRWEMEAF [FAS2]	1.23 ± 0.077	1.62 ± 0.25		1.6 ± 0.13
SLHSNSFSLTVSKEQFL [YJL039C/NUP192]	1.81 ± 0.065	1.8 ± 0.072	1.84 ± 0.12	1.43 ± 0.078
PQKYVLHPQLHEVQYQE [SIN4]	1.49 ± 0.13	1.88 ± 0.082	2.15 ± 0.14	1.6 ± 0.064
LPNQFPLKIHRTPYLTS [SWI1]	2.07 ± 0.042	1.72 ± 0.045	1.65 ± 0.074	1.72 ± 0.038
LELVNTPLTENILIASL [YCG1]	1.66 ± 0.052	1.62 ± 0.042	1.93 ± 0.083	2.27 ± 0.037
GKGIKLSIAEERDRRRA [RPS4A]	2.59 ± 0.12	2.87 ± 0.16	3.35 ± 0.072	3.23 ± 0.09
TQYKAGKASLFAQGKRR [RPL42A]	3.35 ± 0.089	3.04 ± 0.07	3.1 ± 0.097	3.14 ± 0.1
NNNNAPIIIYGTENTER [YOR098C/NUP1]	2.62 ± 0.054	2.69 ± 0.06	2.83 ± 0.045	2.74 ± 0.039
EQNSSSAKPSQIPTVSS [SIR4]	2.99 ± 0.062	2.97 ± 0.051	2.97 ± 0.048	3.04 ± 0.05
LRKSELEYYAMLSKTKV [RPL30]	2.62 ± 0.075	3.01 ± 0.078	2.17 ± 0.07	2.82 ± 0.068
QNISPVYSVDPLEKITD [PRP8]	2.94 ± 0.083	2.9 ± 0.084	2.86 ± 0.054	2.85 ± 0.079
QPAKEKGVTEKDAVDYS [RRP6]	3.2 ± 0.21	3.15 ± 0.17	3.27 ± 0.091	3.42 ± 0.062
QMMARMAQTATQQQPGA [SRP54]	2.34 ± 0.059	2.36 ± 0.067	2.35 ± 0.067	2.27 ± 0.044
ENIEPLDPINLPLDSQD [PRP8]	2.87 ± 0.078	2.97 ± 0.089	2.49 ± 0.11	3.04 ± 0.067
